The source of these data is patent US11499162B2, “Plants having increased tolerance to herbicides” (BASF SE, priority 2016, dated 2022).

To fix the notation:
B1: L92AY93LF157L: mutated TriA variant of SEQ ID NO: 2 (protein)
chain: MQTLSIQHGTLVTMDQYRRVLGDSWVHVQDGRIVALGVHAESVPPPADRVIDARGKVVLPGFINAHTHVNQILLRGGPSHGRQLYDWLFNVALPGQKAMRPEDVAVAVRLYCAEAVRSGITTINDNADSAIYPGNIEAAMAVYGEVGVRVVYARMFLDRMDGRIQGYVDALKARSPQVELCSIMEETAVAKDRITALSDQYHGTAGGRISVWPAPAITPAVTVEGMRWAQAFARDRAVMWTLHMAESDHDERLHWMSPAEYMECYGLLDERLQVAHCVYFDRKDVRLLHRHNVKVASQVVSNAYLGSGVAPVPEMVERGMAVGIGTDDGNCNDSVNMIGDMKFMAHIHRAVHRDADVLTPEKILEMATIDGARSLGMDHEIGSIETGKRADLILLDLRHPQTTPHHHLAATIVFQAYGNEVDTVLIDGNVVMENRRLSFLPPERELAFLEEAQSRATAILQRANMVANPAWRSL
modifications: Pseudomonas
B2: L88AL92AY93LF157L: mutated TriA variant of SEQ ID NO: 2 (protein)
chain: B1 chain with L88A
modifications: Pseudomonas
B3: N70LQ71ID128IM155VF157L: mutated TriA variant of SEQ ID NO: 2 (protein)
chain: B1 chain with N70L, Q71I, A92L, L93Y, D128I, M155V
modifications: Pseudomonas
B4: Y85LL88AF89AL92AY93VQ96TD128GM155VF157L: mutated TriA variant of SEQ ID NO: 2 (protein)
chain: B1 chain with Y85L, L88A, F89A, L93V, Q96T, D128G, M155V
modifications: Pseudomonas
B5: L88VL92V: mutated TriA variant of SEQ ID NO: 2 (protein)
chain: B1 chain with L88V, A92V, L93Y, L157F
modifications: Pseudomonas
B6: W87FL92AY93LF157L: mutated TriA variant of SEQ ID NO: 2 (protein)
chain: B1 chain with W87F
modifications: Pseudomonas
B7: N70LQ71ID128IM155V: mutated TriA variant of SEQ ID NO: 2 (protein)
chain: B1 chain with N70L, Q71I, A92L, L93Y, D128I, M155V, L157F
modifications: Pseudomonas
B8: N70VM155V: mutated TriA variant of SEQ ID NO: 2 (protein)
chain: B1 chain with N70V, A92L, L93Y, M155V, L157F
modifications: Pseudomonas
B9: N70VQ71L92VM155AF157A: mutated TriA variant of SEQ ID NO: 2 (protein)
chain: B1 chain with N70V, Q71L, A92V, L93Y, M155A, L157A
modifications: Pseudomonas
B10: N70IQ71IF157A: mutated TriA variant of SEQ ID NO: 2 (protein)
chain: B1 chain with N70I, Q71I, A92L, L93Y, L157A
modifications: Pseudomonas
B11: Y85LL88AF89AL92AY93LQ96TD128GM155VF157L: mutated TriA variant of SEQ ID NO: 2 (protein)
chain: B1 chain with Y85L, L88A, F89A, Q96T, D128G, M155V
modifications: Pseudomonas
B12: D128V: mutated TriA variant of SEQ ID NO: 2 (protein)
chain: B1 chain with A92L, L93Y, D128V, L157F
modifications: Pseudomonas
B13: N70LQ71LF157A: mutated TriA variant of SEQ ID NO: 2 (protein)
chain: B1 chain with N70L, Q71L, A92L, L93Y, L157A
modifications: Pseudomonas
B14: M155L: mutated TriA variant of SEQ ID NO: 2 (protein)
chain: B1 chain with A92L, L93Y, M155L, L157F
modifications: Pseudomonas
B15: D128P: mutated TriA variant of SEQ ID NO: 2 (protein)
chain: B1 chain with A92L, L93Y, D128P, L157F
modifications: Pseudomonas
B16: N70IQ71L92VM155AF157A: mutated TriA variant of SEQ ID NO: 2 (protein)
chain: B1 chain with N70I, Q71L, A92V, L93Y, M155A, L157A
modifications: Pseudomonas
B17: W87AL92AY93LF157L: mutated TriA variant of SEQ ID NO: 2 (protein)
chain: B1 chain with W87A
modifications: Pseudomonas
B18: L88VL92VF157A: mutated TriA variant of SEQ ID NO: 2 (protein)
chain: B1 chain with L88V, A92V, L93Y, L157A
modifications: Pseudomonas
B19: Q96V: mutated TriA variant of SEQ ID NO: 2 (protein)
chain: B1 chain with A92L, L93Y, Q96V, L157F
modifications: Pseudomonas
B20: F157T: mutated TriA variant of SEQ ID NO: 2 (protein)
chain: B1 chain with A92L, L93Y, L157T
modifications: Pseudomonas
B21: L88VL92I: mutated TriA variant of SEQ ID NO: 2 (protein)
chain: B1 chain with L88V, A92I, L93Y, L157F
modifications: Pseudomonas
B22: N70VD128SM155V: mutated TriA variant of SEQ ID NO: 2 (protein)
chain: B1 chain with N70V, A92L, L93Y, D128S, M155V, L157F
modifications: Pseudomonas
B23: N70VD128TM155V: mutated TriA variant of SEQ ID NO: 2 (protein)
chain: B1 chain with N70V, A92L, L93Y, D128T, M155V, L157F
modifications: Pseudomonas
B24: D128G: mutated TriA variant of SEQ ID NO: 2 (protein)
chain: B1 chain with A92L, L93Y, D128G, L157F
modifications: Pseudomonas
B25: L88VL92IF157V: mutated TriA variant of SEQ ID NO: 2 (protein)
chain: B1 chain with L88V, A92I, L93Y, L157V
modifications: Pseudomonas
B26: W87HL92AY93LF157L: mutated TriA variant of SEQ ID NO: 2 (protein)
chain: B1 chain with W87H
modifications: Pseudomonas

Where a chain is given by its changes, count along the chain named. Numbers in names are those of the source.

The data set is classed as biochemical. The following applies: pH 7.2. In short, it runs like this:
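E. coli resting cells expressing His-tagged TriA incubated with azines, melamine or atrazine. Enzyme in 25 mM sodium phosphate pH 7.2 at 30 °C, substrate 1–10 nM. Loss of parent and formation of OH-metabolite followed by UPLC-HR-MS; % degradation relative to empty-vector cells.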
Regarding B1, the “Degradation in % of 6-cyclopentyl-N4-(2,3,4,5,6-pentafluorophenyl)-1,3,5-triazine-2,4-diamine” value worked out at 97% and the “Degradation in % of Melamine” value is recorded as 43%.
Taken in the same sequence, the figures for B2 were 99% and 1%.
Taken in the same sequence, the figures for B3 were 0% and 3%.
The like results for B4 were, in that order, 13% and 6%.
On to B5, for which the “Degradation in % of 6-cyclopentyl-N4-(2,3,4,5,6-pentafluorophenyl)-1,3,5-triazine-2,4-diamine” value turned out to be 0% and the “Degradation in % of Melamine” value turned out to be 0%.
For the molecule B6, the “Degradation in % of 6-cyclopentyl-N4-(2,3,4,5,6-pentafluorophenyl)-1,3,5-triazine-2,4-diamine” value came out at 99% and the “Degradation in % of Melamine” value is reported as 1%.
On to B7, for which the “Degradation in % of 6-cyclopentyl-N4-(2,3,4,5,6-pentafluorophenyl)-1,3,5-triazine-2,4-diamine” value was found to be 0% and the “Degradation in % of Melamine” value is listed as 9%.
The like results for B8 were, in that order, 0% and 0%.
With B9, the “Degradation in % of 6-cyclopentyl-N4-(2,3,4,5,6-pentafluorophenyl)-1,3,5-triazine-2,4-diamine” value was found to be 1% and the “Degradation in % of Melamine” value is listed as 0%.
On to B10, for which the “Degradation in % of 6-cyclopentyl-N4-(2,3,4,5,6-pentafluorophenyl)-1,3,5-triazine-2,4-diamine” value was found to be 3% and the “Degradation in % of Melamine” value is reported as 0%.
In the case of B11, the “Degradation in % of 6-cyclopentyl-N4-(2,3,4,5,6-pentafluorophenyl)-1,3,5-triazine-2,4-diamine” value came to 13% and the “Degradation in % of Melamine” value is 1%.
On to B12, for which the “Degradation in % of 6-cyclopentyl-N4-(2,3,4,5,6-pentafluorophenyl)-1,3,5-triazine-2,4-diamine” value is given as 2% and the “Degradation in % of Melamine” value worked out at 0%.
B13: the “Degradation in % of 6-cyclopentyl-N4-(2,3,4,5,6-pentafluorophenyl)-1,3,5-triazine-2,4-diamine” value was determined as 0% and the “Degradation in % of Melamine” value came out at 2%.
Taken in the same sequence, the figures for B14 were 0% and 4%.
As to B15, the “Degradation in % of 6-cyclopentyl-N4-(2,3,4,5,6-pentafluorophenyl)-1,3,5-triazine-2,4-diamine” value is 0% and the “Degradation in % of Melamine” value was 0%.
In the case of B16, the “Degradation in % of 6-cyclopentyl-N4-(2,3,4,5,6-pentafluorophenyl)-1,3,5-triazine-2,4-diamine” value worked out at 1% and the “Degradation in % of Melamine” value came to 0%.
Taken in the same sequence, the figures for B17 were 12% and 3%.
As for B18, the “Degradation in % of 6-cyclopentyl-N4-(2,3,4,5,6-pentafluorophenyl)-1,3,5-triazine-2,4-diamine” value came to 0% and the “Degradation in % of Melamine” value was determined as 0%.
Turning to B19, the “Degradation in % of 6-cyclopentyl-N4-(2,3,4,5,6-pentafluorophenyl)-1,3,5-triazine-2,4-diamine” value was 0% and the “Degradation in % of Melamine” value stood at 4%.
As to B20, the “Degradation in % of 6-cyclopentyl-N4-(2,3,4,5,6-pentafluorophenyl)-1,3,5-triazine-2,4-diamine” value is listed as 0% and the “Degradation in % of Melamine” value turned out to be 60%.
As to B21, the “Degradation in % of 6-cyclopentyl-N4-(2,3,4,5,6-pentafluorophenyl)-1,3,5-triazine-2,4-diamine” value is 0% and the “Degradation in % of Melamine” value stood at 8%.
B22: the “Degradation in % of 6-cyclopentyl-N4-(2,3,4,5,6-pentafluorophenyl)-1,3,5-triazine-2,4-diamine” value is 0% and the “Degradation in % of Melamine” value came out at 0%.
Take B23: the “Degradation in % of 6-cyclopentyl-N4-(2,3,4,5,6-pentafluorophenyl)-1,3,5-triazine-2,4-diamine” value worked out at 1% and the “Degradation in % of Melamine” value is 4%.
For B24, the “Degradation in % of 6-cyclopentyl-N4-(2,3,4,5,6-pentafluorophenyl)-1,3,5-triazine-2,4-diamine” value amounted to 0% and the “Degradation in % of Melamine” value turned out to be 0%.
On to B25, for which the “Degradation in % of 6-cyclopentyl-N4-(2,3,4,5,6-pentafluorophenyl)-1,3,5-triazine-2,4-diamine” value is on record as 0% and the “Degradation in % of Melamine” value worked out at 5%.
In the case of B26, the “Degradation in % of 6-cyclopentyl-N4-(2,3,4,5,6-pentafluorophenyl)-1,3,5-triazine-2,4-diamine” value amounted to 18% and the “Degradation in % of Melamine” value came to 0%.
